Assay results taken from article PMC5826061.

Biological target: T1, GlnR (Streptomyces coelicolor) (UniProt Q05943)
T1 sequence: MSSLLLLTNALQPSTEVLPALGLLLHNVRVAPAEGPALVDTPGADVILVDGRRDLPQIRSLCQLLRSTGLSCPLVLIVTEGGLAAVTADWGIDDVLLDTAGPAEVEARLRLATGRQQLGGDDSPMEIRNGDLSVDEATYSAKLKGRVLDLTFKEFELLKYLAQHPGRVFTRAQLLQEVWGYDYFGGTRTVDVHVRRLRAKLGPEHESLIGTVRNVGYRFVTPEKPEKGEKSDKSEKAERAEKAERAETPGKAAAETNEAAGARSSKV
Experiment: DNase I footprinting
Conditions: 50 mM Tris-HCl pH 8.0, 100 mM KCl, 2.5 mM MgCl2, 1 mM DTT, 10% glycerol; EMSA in 20 ul with 100 ng/ul sheared salmon sperm DNA, room temperature, 20 min …

Sequence | binding
GTAAAACGACGGCCAGTCCATGCCAGGTCATTCGGAGGCCGCCGCGGCCGGCTTGCGTTCCGGGCCGGACGGCCCGGGCACGACGACGACCGGCCCCGGCCGTTCACCCACGCGTAACACGCACCGTGCCTTCGTCACGGCGGCGAAACAACGAGAAATCTCCACCGAAACCGCGCTGCGTCAATGTCGTGGCGCATAACCGGCCCACCCCTCACCGCCCGCCCGCCAGGCTTCGCCCCCACGGGGCCGCACCAACGACGAGGAGACGCCGATGTCTAGATTTTT (double strand) [amtB promoter a2m footprint probe] | binds
GTAAAACGACGGCCAGTCCATGCCAGGTCATTCGGAGGCCGCCGCGGCCGGCTTGCGTTCCGGGCCGGACGGCCCGGGCACGACGACGACCGGCCCCGGCCGTTCACCCACGCGTAACACGCACCGTGCCTTCGTCACGGCGGCGAAACAACGAGGGGCTTCCACCGAAACCGCGCTGCGTCAATGTCGTGGCGCATAACCGGCCCACCCCTCACCGCCCGCCCGCCAGGCTTCGCCCCCACGGGGCCGCACCAACGACGAGGAGACGCCGATGTCTAGATTTTT (double strand) [amtB promoter WT footprint probe] | binds
GTAAAACGACGGCCAGTCCATGCCAGGTCATTCGGAGGCCGCCGCGGCCGGCTTGCGTTCCGGGCCGGACGGCCCGGGCACGACGACGACCGGCCCCGGCCGTTCACCCACGCGTAACACGCAGGGGCTTCCACCGAAACCGCGCTGCGTCAATGTCGTGGCGCATAACCGGCCCACCCCTCACCGCCCGCCCGCCAGGCTTCGCCCCCACGGGGCCGCACCAACGACGAGGAGACGCCGATGTCTAGATTTTT (double strand) [amtB promoter m3 footprint probe] | binds
